In patent US20260217797A1 (Takeda / Millennium, published 2026):

How the values were obtained:
[1] = target: T1, SARS-CoV-2 Spike S1-His (SARS-CoV-2, UniProt P0DTC2 16-685); assay: Octet BLI, Fab, monovalent
[2] = target: T2, SARS-CoV-2 wild type spike protein (on reporter virus particles) (SARS-CoV-2, UniProt P0DTC2 14-1273); assay: cell-based or functional assay
[3] = target: T2, SARS-CoV-2 wild type spike protein (on …); assay: cell-based or functional assay; remark: listed apart in the source
[4] = target: SARS-CoV1 Spike [change] (SARS-CoV-1, UniProt P59594 14-667); assay: Octet BLI, IgG, monovalent
[5] = target: T1, SARS-CoV-2 Spike S1-His; assay: Octet BLI, IgG, monovalent
[6] = target: T2, SARS-CoV-2 wild type spike protein (on …); assay: cell-based or functional assay; remark: listed apart in the source
[7] = target: T2, SARS-CoV-2 wild type spike protein (on …); assay: cell-based or functional assay; remark: listed apart in the source
[8] = target: SARS-CoV-2 WT RBD (SARS-CoV-2, UniProt P0DTC2 319-541); assay: Octet BLI single point, monovalent

B1: A-24.1 Fab (Fab, V domains shown)
VH: EVQLVESGGGLVKPGRSLRLSCAASGFTFADYTMSWFRQAPGKGLEWVGFIRSEPYGGTTEYAASVKGRFTISRDDSKSIAYLQMNSLKTEDTAVYYCSRDPWYCSGGDCYAVTGSWFDPWGQGTLVTVSS
VL: DIQMTQSPSSLSASVGDRVTITCQASQDIKKYLNWYQQKPGKAPKLLIYDVSNLETGVPSRFSGSGSGTDFTFTISSLQPEDVAIYYCQQYDNLPQTFGQGTKVEIK
[1]
  Kd: 539 pM

B2: A-22 (antibody, V domains shown)
VH: not shown
VL: EIVLTQSPGTLSLSPGERATLSCRASQTVRSDLAWYQQKPGQAPRLLIYGASTRATDISDRFSGSGSGTEFTLTISSLQSEDFAVYYCQQYYEWPPHSDSFGGGTKVEIK
[2]
  SARS2 IC50: 60 pM
[3]
  PsV neutralization IC50: 0.749 µg/mL
  PsV neutralization IC90: 3.55 µg/mL
[4]
  Kd: 4510 pM
[5]
  Kd: 244 pM
[6]
  SARS2 PsV IC50: 5000 pM
[7]
  WT PsV IC50: 28800 pM
[8]
  Kd: 325 pM
